2 molecules from paper PMC4019675 (Nature cell biology, 2013) can be followed below.

Sequences and labels used below:
T1: FtsA (wild-type, untagged) (E. coli (PCR amplified from MG1655 …, UniProt P0ABH0 1-420))
T1 sequence (looked up): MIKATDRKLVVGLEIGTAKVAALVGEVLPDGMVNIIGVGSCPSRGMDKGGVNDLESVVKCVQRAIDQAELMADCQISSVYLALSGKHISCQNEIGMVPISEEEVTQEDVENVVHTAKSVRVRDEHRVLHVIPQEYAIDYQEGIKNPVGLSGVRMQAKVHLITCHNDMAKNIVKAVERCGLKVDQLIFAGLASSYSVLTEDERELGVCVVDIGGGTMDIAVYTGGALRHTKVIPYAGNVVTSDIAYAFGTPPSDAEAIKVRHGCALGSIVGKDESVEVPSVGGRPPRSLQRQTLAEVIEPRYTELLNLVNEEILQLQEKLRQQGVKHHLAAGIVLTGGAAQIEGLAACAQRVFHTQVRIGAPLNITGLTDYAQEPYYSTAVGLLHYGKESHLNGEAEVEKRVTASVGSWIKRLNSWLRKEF

B1: His-Δ22-ZipA (domain or fragment)
chain: not shown
B2: FtsZ (untagged) (natural protein, UniProt P0A9A6 1-383, looked up)
chain: MFEPMELTNDAVIKVIGVGGGGGNAVEHMVRERIEGVEFFAVNTDAQALRKTAVGQTIQIGSGITKGLGAGANPEVGRNAADEDRDALRAALEGADMVFIAAGMGGGTGTGAAPVVAEVAKDLGILTVAVVTKPFNFEGKKRMAFAEQGITELSKHVDSLITIPNDKLLKVLGRGISLLDAFGAANDVLKGAVQGIAELITRPGLMNVDFADVRTVMSEMGYAMMGSGVASGEDRAEEAAEMAISSPLLEDIDLSGARGVLVNITAGFDLRLDEFETVGNTIRAFASDNATVVIGTSLDPDMNDELRVTVVATGIGMDKRPEITLVTNKQVQQPVMDRYQQHGMAPLTQEQKPVAKVVNDNAPQTAKEPDYLDIPAFLRKQAD

The test “FtsZ (untagged)” addresses B2. In words: co-sedimentation.
Test [1] concerns the target T1, FtsA (wild-type, untagged). In words: co-sedimentation.

B1: the binding result with FtsZ (untagged) is on record as “binds”.
B2: the binding result in test [1] is “binds”.
